The subject of this series is R4Al (R4_AL) retrotransposase (Ascaris lumbricoides). As to the kind of experiment: cell_activity. As to conditions: ddPCR 3' junction, HEK293T, plasmid cis.

Turning to human rDNA R4 target site, the activity (copies/genome) was determined as 0.085.
